This is an account of results in patent publication US20260234247A1 (published 2026).

To fix the notation:
B1: LK-RB1-42 (antibody, human IgG4 S228P, kappa, V domains shown)
VH: QVQLQQPGAELVKPGTSVKLSCKASGYSFISYWVYWVKQRPGQGLEWIGMIHPNSGSTNFNEKFRYKATLTVDKSSSTAYIQLSSLTSEDSAVYYCGRSDDGYPYHAMDSWGQGTSVTVSS
VL: DIVMTQSQKFMSTSVGDRVSVTCKASQNVGTNVAWYQQKPGQSPKALIYSASYRFSGVPDRFTGSGSGTDFTLTIGNVQSEDLAEYFCHQYKNYPLTFGGGTKLEIKR
B2: LK-RB1-44 (antibody, human IgG4 S228P, kappa, V domains shown)
VH: QVQLQQSGTELAKPGASVKLSCKASGYTFTNYWMHWIKQRPGQGLEWIGYVHPTSDYTKYNQKFKDKATLTADKSSSTAYMQLNSLTYEDSAVYYCTRSSLYDTNYVFDSWGQGTTLTVSS
VL: DILLTQSPAILSVSPGERVSFSCRASQSIGRSIHWFQQRTNGSPSLLIKYASESISGIPSRFSGGGSGTDFTLSISNVESEDIADYYCQQSNNWPFTFGSGTKLEIKR
B3: LK-RB1-45 (antibody, human IgG4 S228P, kappa, V domains shown)
VH: B2 VH with K13R, Y32F, H52N
VL: B2 VL with F36Y, S45R
B4: LK-RB1-46 (antibody, human IgG4 S228P, kappa, V domains shown)
VH: EVQLQQSGPELVKPGASVKISCKTSGYTFTDYYMNWVKQSHGKSLEWIGDIYPINGDISYNQKFKGKATLTVDKSSSTVYMEIRSLTYEDSAVYYCARLAQTTSGGFDYWGQGTTLTVSS
VL: DIVLTQSPTSLAVSLGQRAIISCKASQSVSFAGTSLMHWYQQKPGQQPKLLIYRASNLKAGVPTRFSGSGSRTDFTLNIHPVEEDDAATYYCQQSREYPMYTFGGGTKLEIKR
B5: LK-RB1-43 (antibody, human IgG4 S228P, kappa, V domains shown)
VH: EFQLQQSGPELMKPGASVKISCKASGYSFTDYNMNWVKQSNGKSLEWIGIIDPNYGTTTYNQKFKGRATLTVDQSSNTAYMQLNSLTSEDSAVYYCAREGRYSWFAYWGQGTLVTVSA
VL: DIQMTQSPGALSVSVGETVTITCRASENINSNLAWYQQKQGKSPQLLVYAATNLADGVPSRFSGSGSGTQYSLKINSLQSEDFGSYHCQHFWGTPFTFGSGTKLEIKR
B6: 12D12 (antibody, human IgG4 S228P, kappa, V domains shown)
VH: QVQLQQPGAELVKPGASVRMSCKASGYTFTSYWVHWVKQRPGQGLEWIGVIDPSDSYTSYNQNFKGKATLTVDTSSKTAYIHLSSLTSEDSAVYFCARGERYDGDYFAMDYWGQGTSVTVSS
VL: B5 VL with Q3V, G9A, A10S, N30Y, G66R, S85T, H87Y, G93N, F96R, S100G
B7: LK-RB1-55 (antibody, human IgG4 S228P, kappa, V domains shown)
VH: EVKLVESGGGLVQPGGSLKLSCAASGFTFSDYYMYWVRQTPEKRLEWVAYISNGGDITFYPDTVKGRFTISRDNARSTLYLQMSRLKSEDTAIYYCASATTEVGAMDHWGQGTSVTVSS
VL: DIVMTQSQKFMSTTVGDRVSITCKASQNVGTAVAWYQQKPGKSPKLLIYAASNRYTGVPDRFTGSGSGTDFTLTISNMQSEDLADYFCQQYSSYRTFGGGTNLEIKR
B8: LK-RB1-57 (antibody, human IgG4 S228P, kappa, V domains shown)
VH: B7 VH with M83T
VL: B7 VL with M78V, N102S
B9: LK-RB1-48 (antibody, human IgG4 S228P, kappa, V domains shown)
VH: B7 VH with D56G, T58S, R76K, S77N, T101K, H108Y
VL: B7 VL with M11L, K42Q, L46I, A50S, N102K
B10: LK-RB2-10 (antibody, human IgG4 S228P, kappa, V domains shown)
VH: EVMLVESGGDLVKPGGSLKLSCAASGFTFSANTVSWLRRTPERRLEWVATISGGSDNTYCPDSVKGRFTISRDNARDTLYLQMSSLTSEDTALYFCARHYYDGPNWYFDVWGPGTTVTVSS
VL: DIVMTQSQKFMSSTGGDRVTITCKASQNVDTAVAWYQQKPGQSPKLLIYSASNRYIGVPDRFKGSGSGTDFSLTITNIQSEDLAEYFCQQYSSYPLTFGAGTKLELKR
B11: LK-RB2-39 (antibody, human IgG4 S228P, kappa, V domains shown)
VH: DVKLVESGGGSVQPGGSLKLSCAASGFTFSDYYMYWVRQTPEKRLEWVAYISNGGGNTYYPDTVKGRFTISRDNAKNTLYLQMSRLKSEDTAMYYCARSNWAWYFDVWGTGTTVTVSS
VL: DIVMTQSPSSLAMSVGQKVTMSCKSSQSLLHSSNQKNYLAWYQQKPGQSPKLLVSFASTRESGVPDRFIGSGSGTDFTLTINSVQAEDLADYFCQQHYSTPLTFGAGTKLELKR
B12: LK-RB2-20 (antibody, human IgG4 S228P, kappa, V domains shown)
VH: QVQLKQPGAERVKPGASVKMSCKASGYTFTRYWITWVKQRPGQGLEWIGDIYPGSATTNYNEKFKSKATLTEDTSSSTAYMQLSSLTSEDSAVYYCARSGDYSNSNYAMDYWGQGTSVTVSS
VL: NIEMTQSPKSMSMAVGERVTLSCKASENVGTYVSWYQQKPEQSPKLLIYGASNRNTGVPDRFTGSGSATDFTLTISSVQAEDLADYHCGQSYSYPFTFGSGTKLEIKR
B13: LK-RB2-31 (antibody, human IgG4 S228P, kappa, V domains shown)
VH: QVQLQQPGAELVKPGASMKLSCKASGYTFTTYYMYWVKQRPGLGLEWIGGINPSNGGTTFNEKFKNKATLTVDKSSSTAYMQLRSLTSEDSAVYYCTRWRFFDVWGAGTTVTVSS
VL: SIVMTQTPEFLLVSAGDRVTITCKASQSVNNDVAWFQQKPGQSPKLLIYYASNRYTGVPDRFTGSGYGTDFTFTISTVQAEDLAIYFCQQDYSSPPTFGGATKLEIKR
B14: LK-RB2-7 (antibody, human IgG4 S228P, kappa, V domains shown)
VH: DVKLVESGEGLVKPGGSLKLSCAASGFTFSSYAMSWVRQTPEMRLEWVAYISSGGDHFYYADTVKGRFTISRDNARSTLYLQMSSLKSEDTAMYYCTREGASYDSNFLAWFAYWGQGTLVTVSA
VL: DIQMTQSPASLSVSVGETVTITCRASENIYSNLAWYQQKEGKSPQLLVYGATNLADGVPSRFSGSGSGTQYSLKINSLQSEDFGSYYCQNFWDIPLTFGAGTKLELKR
B15: LK-RB2-18 (antibody, human IgG4 S228P, kappa, V domains shown)
VH: EVQLQQSGPELVKPGTSVKISCKASGYTFTDYYMNWVKQSHGKSLEWIGDINPNNGGTSYNQKFKGKATLTVDKSSSTAYMELRSLTSEDSAVFYCARSGTTVVGTYWYFDVWGTGTTVTVSS
VL: B14 VL with E40Q, N90H, I94T, L96F, A100S, L106I
B16: LK-RB2-9 (antibody, human IgG4 S228P, kappa, V domains shown)
VH: DVQLQESGPGLVKPSQSLSLTCSVTGYSITSGYYWNWIRQFPGNKLEWMGYIGYDGNNNYNPSLKNRISITRDTSKNQFFLKLNSLTTEDTATYYCAREGSTMVTSWFAYWGQGTLVTVSA
VL: B14 VL with E40Q, S65R, G68D, N90H, I94T, L96Y, A100G, L106I
B17: LK-RB2-25 (antibody, human IgG4 S228P, kappa, V domains shown)
VH: QVQLKESGPGLVAPSQSLSITCTVSGFSLTSYGVHWVRQPPGKGLEWLGVIWAGGSTKYNSALMSRLSINKDNSKSQVFLKMNSLQTDDTAMYYCARDQMVRSAMDYWGQGTSVTVSS
VL: DIQMIQSPSSMFASLGDRVSLSCRASQGIRGNLDWYQQKPGGTIKLLIYSTSNLNSAVPSRFSGSGSGSDYSLTISNLESEDFADYYCLQRNASPYTFGGGTKLEIKR
B18: LK-RB2-11 (antibody, human IgG4 S228P, kappa, V domains shown)
VH: QIQLVQSGPELKKPGETVKISCKASGYSFITYGMSWVKQAPGKGLKWMGWINTYSGEPTYGDDFMGRFAFSLETSASTAYLQINNLKNEDTASYFCARYHYDDGMDYWGQGTSVTVSS
VL: DIKMTQSPSSMYASLGERVTITCKASQDINNYLSWFQQKPGKSPKTLIFRANRLVDGVPSRFSGSGSGQDYSLTISSLEDEDMGIYYCLQYDEFPWMFGGGTKLEIER
B19: LK-RB2-6 (antibody, human IgG4 S228P, kappa, V domains shown)
VH: QIQLVQSGPELKKPGETVKISCKASGYTFTTYGMSWVKQAPGKGLEWMGWINIYSGVPTYADDFKGRFAFSLETSASTAYLQINNLKNEDTATYFCARRGDYDSFYFDYWGQGTTLTVSS
VL: DIVMSQSPSSLAVSVGEKVTVSCKSSQSLLYSYNQKNYLAWYQQKPGQSPKLLIYWSSTRESGVPDRFTGSGSGTDFTLTISSVKAEDLAVYYCQQCYNYPYTFGGGTKLEIKR
B20: LK-RB2-13 (antibody, human IgG4 S228P, kappa, V domains shown)
VH: QIQLVQSGPELKKPGETVKISCKASGYTFTTYGMSWVKQAPGKGLQWMGWINTYSGVPTFADDFKGRFAFSLDTSASTAYLQINNLKNEDTATYFCARRINWDGYAMDYWGQGTSVTVSS
VL: B19 VL with I2S, V21M, Y33G, N37S, S57A, C97Y, N99S
B21: LK-RB2-17 (antibody, human IgG4 S228P, kappa, V domains shown)
VH: B20 VH with T31N, K65R, N85S, T93A
VL: B19 VL with I2S, V21L, Y33G, N37S, S57A, T59S, C97Y, N99S, Y100F
B22: LK-RB2-32 (antibody, human IgG4 S228P, kappa, V domains shown)
VH: DVQLQESGPGLVKPSQSLSLTCSVTGYSITSGYYWNWIRQFPGNKLEWMGYISFDGSNHYNPSLRNRISITRDTFKNQFFLKLNSVTTEDTATFYCTRRDYNWFAYWGQGTLVTVSA
VL: DIVLTQSPVTLSVTPGDSVSLSCRASQNINKNLHWYQQRSHESPRLLIKYVSQSISGIPSRFSGSGSGTDFTLSINSVETEDFGMYFCQQSNSWPLTFGAGTKLELRR

Positions count from the first letter of the chain named.

T1 sequence (Q8NHL6 24-458 limits assumed): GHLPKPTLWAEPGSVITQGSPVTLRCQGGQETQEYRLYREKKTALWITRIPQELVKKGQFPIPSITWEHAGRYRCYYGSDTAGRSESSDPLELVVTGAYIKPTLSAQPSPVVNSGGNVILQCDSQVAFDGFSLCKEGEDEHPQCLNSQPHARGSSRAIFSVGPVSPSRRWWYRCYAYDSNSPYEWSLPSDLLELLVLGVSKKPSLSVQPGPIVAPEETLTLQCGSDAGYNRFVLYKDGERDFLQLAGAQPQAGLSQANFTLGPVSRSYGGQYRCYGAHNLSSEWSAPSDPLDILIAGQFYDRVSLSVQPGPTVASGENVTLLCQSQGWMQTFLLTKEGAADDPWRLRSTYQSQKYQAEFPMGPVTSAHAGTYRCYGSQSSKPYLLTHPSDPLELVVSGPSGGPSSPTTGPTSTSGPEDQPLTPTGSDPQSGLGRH

One experiment addresses T1, human LILRB1 (human, UniProt Q8NHL6 24-458, limits assumed).
T1 construct: also called hLILRB1
The experiment in a line: Octet off-rate ranking.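 Further: antibody dissociation rate constants against cynomolgus LILRB2 plus human LILRB1, LILRB2, LILRA1 and LILRA2, measured on an Octet instrument to rank binding.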 On the technique in general: Biolayer interferometry detects binding as a change in optical thickness at a sensor tip.
Description: Binding affinity of anti-LILRB1 and anti-LILRB2 antibodies against human LILRB1, LILRB2, LILRA1, LILRA2 and cynomolgus LILRB2 was ranked by measuring dissociation rate constant (Kdis) using the Octet system.
As a reminder, the koff is the first-order rate constant of dissociation. Low readings indicate slow dissociation, high ones fast dissociation. As for B1, the off-rate (koff) amounted to 0.000139 s⁻¹. The same measure, in the same setting: the same measure for B2: 0.000559 s⁻¹; for B3: 0.000611 s⁻¹. Still for that read-out and setting: the same measure for B4: 0.000739 s⁻¹. B5 yielded a koff of 0.000364 s⁻¹. Turning to B6, the koff was 0.000338 s⁻¹. Still for that read-out and setting: the same measure for B7: < 1e-07 s⁻¹; for B8: < 1e-07 s⁻¹. Same read-out and setting: the figure for B9 is 8.47e-06 s⁻¹.

For a further experiment, the target named is T2, human LILRB2 expressed on CHOK1 cells (CHOK1-hLILRB2) (human, UniProt Q8N423 22-597).
T2 construct: whole, on cells; also called CHOK1-LILRB2
T2 sequence (Q8N423 22-597): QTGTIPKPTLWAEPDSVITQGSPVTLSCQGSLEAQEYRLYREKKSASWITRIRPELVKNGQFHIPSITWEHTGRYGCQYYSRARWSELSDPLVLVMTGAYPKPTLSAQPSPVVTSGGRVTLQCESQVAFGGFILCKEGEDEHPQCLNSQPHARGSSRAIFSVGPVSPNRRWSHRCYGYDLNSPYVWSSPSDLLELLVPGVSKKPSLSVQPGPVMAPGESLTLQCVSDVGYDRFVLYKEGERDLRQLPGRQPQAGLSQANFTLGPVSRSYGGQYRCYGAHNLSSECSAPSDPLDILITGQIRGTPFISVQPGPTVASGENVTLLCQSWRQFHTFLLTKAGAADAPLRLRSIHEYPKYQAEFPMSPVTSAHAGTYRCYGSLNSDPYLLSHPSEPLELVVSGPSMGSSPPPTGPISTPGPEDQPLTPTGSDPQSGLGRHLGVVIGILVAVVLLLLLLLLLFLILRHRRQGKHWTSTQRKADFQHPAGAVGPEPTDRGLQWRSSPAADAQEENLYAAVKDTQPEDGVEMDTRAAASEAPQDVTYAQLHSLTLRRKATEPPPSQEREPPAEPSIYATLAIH
The experiment in a line: FACS binding to CHOK1-hLILRB2 cells. Background: In flow cytometry, cells or beads pass a laser one at a time.
One may read the EC50 as the concentration that produces a half-maximal response. A low value points to a more potent agent. In turn, B10 had a concentration for a half-maximal effect (EC50) of 0.27 nM. The same measure, in the same setting: the figure for B11 is 36.6 nM; for B12 it is 0.14 nM. B13: the binding result is on record as “no binding”. In the case of B14, the 50% effective concentration (EC50) was determined as 0.25 nM. B15 came in with an EC50 of 0.14 nM. B16 had a 50% effective concentration (EC50) of 0.17 nM. For B17, the binding result was “no binding”. In turn, B18 displayed a half-maximal effective concentration (EC50) of 0.27 nM. Same read-out and setting: the same measure for B19: 0.66 nM.

With B20, the EC50 is 0.23 nM. Consider B21, for which a half-maximal response (EC50) required 0.16 nM.

In a further experiment the target is T3, human LILRB1 expressed on CHOK1 cells (CHOK1-hLILRB1) (human, UniProt Q8NHL6 24-650).
T3 construct: whole, on cells; also called CHOK1-LILRB1
T3 sequence (Q8NHL6 24-650): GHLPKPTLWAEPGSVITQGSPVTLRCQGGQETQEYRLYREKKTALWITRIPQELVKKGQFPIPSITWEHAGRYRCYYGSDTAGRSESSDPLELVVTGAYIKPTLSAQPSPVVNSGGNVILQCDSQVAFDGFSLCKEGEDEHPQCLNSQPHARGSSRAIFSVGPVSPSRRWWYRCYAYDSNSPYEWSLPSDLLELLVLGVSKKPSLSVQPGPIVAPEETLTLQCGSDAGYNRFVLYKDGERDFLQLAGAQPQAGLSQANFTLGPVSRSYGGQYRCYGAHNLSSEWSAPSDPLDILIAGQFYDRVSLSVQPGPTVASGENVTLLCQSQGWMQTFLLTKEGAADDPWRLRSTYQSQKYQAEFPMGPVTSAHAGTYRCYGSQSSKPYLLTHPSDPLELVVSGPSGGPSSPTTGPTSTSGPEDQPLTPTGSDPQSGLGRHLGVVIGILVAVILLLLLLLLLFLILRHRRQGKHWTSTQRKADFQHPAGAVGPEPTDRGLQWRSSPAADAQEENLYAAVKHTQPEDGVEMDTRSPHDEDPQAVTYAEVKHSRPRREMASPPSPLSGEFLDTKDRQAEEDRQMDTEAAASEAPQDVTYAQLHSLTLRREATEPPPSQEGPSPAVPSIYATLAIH
Description: FACS binding to CHOK1-hLILRB1 cells.
Take B10: the binding result was “no binding”.

Consider B11, for which the binding result was “no binding”. On the same count and under the same terms, the entry for B12 is “no binding”. B13 came in with a 50% effective concentration (EC50) of 1.99 nM. B14: the binding result was “no binding”. Turning to B15, the binding result is listed as “no binding”. Same read-out and setting: the same measure for B16: “no binding”. As for B17, a half-maximal response (EC50) required 1.71 nM. B18: the binding result is recorded as “no binding”.

In turn, B22 returned an EC50 of 4.54 nM.

On to B19, for which the binding result was “no binding”. Still for that read-out and setting: the entry for B20 is “no binding”. Same read-out and setting: the same measure for B21: “no binding”.
